Assay results published in patent publication CN111662385A.

Molecular target: human GPC3 recombinant protein (human) (UniProt P51654)
Assay: BLI (ForteBio), antibody 5 ug/ml on anti-human IgG Fc sensor, GPC3 62.5-1000 nM

## hGC33(Codrituzumab) (antibody)
  Kd: 1.74 nM
  koff: 0.00024 s⁻¹
  kon: 141000 M⁻¹ s⁻¹
